Measured values from patent US6395306 (PAN PACIFIC PHARMACEUTICALS, dated 2002).

Target: T1, CXCR2 (human, UniProt P25025 1-360)
T1 sequence: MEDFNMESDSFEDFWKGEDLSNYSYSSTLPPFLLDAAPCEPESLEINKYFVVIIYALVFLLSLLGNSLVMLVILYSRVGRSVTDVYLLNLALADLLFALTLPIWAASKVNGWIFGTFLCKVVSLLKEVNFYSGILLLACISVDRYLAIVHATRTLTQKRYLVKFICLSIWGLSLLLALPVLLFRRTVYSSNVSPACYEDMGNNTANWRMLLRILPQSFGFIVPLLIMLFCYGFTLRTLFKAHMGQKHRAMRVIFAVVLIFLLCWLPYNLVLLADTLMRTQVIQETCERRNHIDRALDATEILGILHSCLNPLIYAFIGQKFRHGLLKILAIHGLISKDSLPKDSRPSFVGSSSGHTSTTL

B1: PX3.101 protein purified from honeybee venom (other)
chain: GGFGGFGGFGGLGGRGKCPSNEIFSRCDGRCQRFCPNVVPKPLCIKICAPGCVCRLGYLRNKKKVCVPRSKCG
  IC50: 500 nM
